Measured values from the supplement of paper PMC11136658.

Tested on: peptide library, one residue held at a place counted from the Y acceptor
Assay: relative phosphorylation of the sub-library (ratio to the mean residue at this position); higher = residue favoured
In short: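 Purified recombinant kinases were incubated for 90 min in 384-well plates with biotinylated Tyr-centred peptide library mixtures, each fixing one residue at one position from −5 to +5, plus 50 μM ATP with γ-32P-ATP. Peptides were captured on streptavidin membranes, rinsed and quantified by phosphorimaging and ImageQuant. Intensities were normalized per position by the sum of the 18 (or 16, Ser/Thr-free library) randomized residues and multiplied by that number. Values give phosphorylation relative to the mean randomized residue.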

Sequence of LYN, construct: Full length, human (P07948 whole entry, looked up): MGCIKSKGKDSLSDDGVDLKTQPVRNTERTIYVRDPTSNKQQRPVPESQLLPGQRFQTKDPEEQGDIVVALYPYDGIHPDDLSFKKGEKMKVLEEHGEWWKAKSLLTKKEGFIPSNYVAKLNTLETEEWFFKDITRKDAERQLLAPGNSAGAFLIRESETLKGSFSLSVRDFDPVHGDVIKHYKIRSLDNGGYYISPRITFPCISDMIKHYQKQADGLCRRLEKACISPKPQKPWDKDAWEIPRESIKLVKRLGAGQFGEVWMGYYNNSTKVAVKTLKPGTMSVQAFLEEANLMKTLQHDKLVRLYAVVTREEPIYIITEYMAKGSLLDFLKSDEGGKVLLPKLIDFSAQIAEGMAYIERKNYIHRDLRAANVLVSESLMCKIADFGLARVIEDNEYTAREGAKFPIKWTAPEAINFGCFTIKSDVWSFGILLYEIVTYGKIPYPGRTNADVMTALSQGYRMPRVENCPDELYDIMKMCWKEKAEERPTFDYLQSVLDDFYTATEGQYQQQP
Sequence of LTK, construct: aa450-end, human (P29376 450-864, looked up): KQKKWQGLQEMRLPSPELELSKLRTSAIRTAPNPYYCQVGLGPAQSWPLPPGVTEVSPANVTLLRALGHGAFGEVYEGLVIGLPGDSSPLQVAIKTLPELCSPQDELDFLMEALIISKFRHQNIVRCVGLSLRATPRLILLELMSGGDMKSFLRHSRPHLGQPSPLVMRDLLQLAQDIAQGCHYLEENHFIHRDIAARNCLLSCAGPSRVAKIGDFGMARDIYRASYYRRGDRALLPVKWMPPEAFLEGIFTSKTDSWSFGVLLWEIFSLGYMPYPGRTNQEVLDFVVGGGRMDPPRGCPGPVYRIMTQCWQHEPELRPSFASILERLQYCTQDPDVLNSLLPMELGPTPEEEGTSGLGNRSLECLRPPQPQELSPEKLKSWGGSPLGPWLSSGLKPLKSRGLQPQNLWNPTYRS

LIMK2, construct: Full length, human (from UniProt P53671)
relative phosphorylation
Settings	at +1	at +2	at +3	at +4	at +5	at -1	at -2	at -3	at -4	at -5
A fixed	0.976	0.966	1.08	1.3	0.842	1.01	0.854	1.04	1.16	1.03
D fixed	0.585	0.603	0.651	0.577	0.528	0.594	0.554	0.548	0.717	0.683
E fixed	0.556	0.664	0.635	0.693	0.554	0.615	0.56	0.529	0.643	0.723
F fixed	0.891	1.1	0.986	0.945	0.84	0.819	0.936	0.877	0.858	0.92
G fixed	0.979	1.06	1.1	1.48	1.07	1.08	1.08	1.24	1.27	1.05
H fixed	1.33	1.11	1.25	1.39	1.13	1.05	1.18	1.14	0.993	1.13
I fixed	0.695	0.788	0.744	0.691	0.53	0.782	0.82	0.632	0.691	0.818
K fixed	1.65	1.47	1.31	1.43	1.73	1.54	1.51	1.6	1.46	1.46
L fixed	0.739	0.931	0.795	0.891	0.749	0.896	0.86	0.865	0.815	0.849
M fixed	0.822	1.01	1.1	0.899	0.75	0.922	0.857	0.669	0.79	0.744
N fixed	0.958	0.851	0.879	0.724	1.07	1.1	1.07	1.09	0.928	0.852
P fixed	1.23	1.31	1.33	1.4	1.13	1.28	1.26	1.33	1.19	1.15
Q fixed	1.05	0.775	0.831	0.66	1.12	0.944	0.911	1.13	0.988	0.893
R fixed	1.79	1.28	1.3	1.19	2	1.65	1.6	1.59	1.55	1.52
V fixed	0.647	0.84	0.78	0.713	0.689	0.715	0.887	0.765	0.783	0.774
W fixed	1.1	1.23	1.22	1.02	1.28	0.986	1.05	0.96	1.16	1.4
pThr fixed	0.62	0.618	0.541	0.618	0.406	0.623	0.566	0.539	0.717	0.671
pTyr fixed	0.617	0.693	0.604	0.497	0.519	0.868	0.658	0.599	0.627	0.759

LTK, construct: aa450-end, human (from UniProt P29376)
relative phosphorylation
Settings	at +1	at +2	at +3	at +4	at +5	at -1	at -2	at -3	at -4	at -5
A fixed	2.49	0.74	0.654	0.78	0.895	0.879	1.07	0.891	1.26	1.05
D fixed	0.526	0.697	0.327	0.862	0.716	1.28	0.86	1.09	0.982	1.02
E fixed	1.34	0.934	0.278	0.952	0.642	0.877	0.963	1.49	1.21	0.905
F fixed	0.908	1.31	2.08	1.11	1.37	0.992	0.711	1.03	1.05	1.01
G fixed	0.74	0.404	0.61	0.982	1.12	0.345	1.17	0.983	1.19	1.19
H fixed	0.848	0.806	0.808	1.11	0.914	1.12	1.08	0.947	0.883	0.961
I fixed	1.23	1.1	2.95	0.875	1	2.47	1.01	0.705	0.762	0.839
K fixed	0.402	0.708	0.361	1.1	0.949	0.377	1.09	1.09	1.05	1.23
L fixed	1.07	1.41	1.38	0.85	1.04	2.06	0.934	0.916	1.01	0.999
M fixed	1.82	1.19	1.82	1.07	0.968	0.982	0.882	0.886	0.878	0.844
N fixed	0.476	0.908	0.445	0.822	0.855	1.27	0.986	1.18	0.858	1.17
P fixed	0.18	0.683	0.671	1.02	1.65	0.835	1.04	0.968	1.2	1.14
Q fixed	1.21	0.834	0.468	1.18	0.763	0.576	1.07	0.923	1.1	0.987
R fixed	0.564	1.21	0.453	1.28	1.19	0.372	1.35	1.29	1.51	1.32
S fixed	1.02	0.654	0.547	0.916	0.916	0.477	1.07	1	0.679	0.831
T fixed	0.833	0.609	0.786	0.851	1.07	0.866	1.09	0.91	0.602	0.703
V fixed	1.27	1.1	2.09	0.854	0.806	1.68	0.894	0.757	0.735	0.815
W fixed	1.07	2.71	1.27	1.37	1.14	0.536	0.731	0.943	1.04	0.993
pThr fixed	0.903	0.538	0.284	0.676	0.557	0.691	0.702	0.79	0.885	0.891
pTyr fixed	1.46	2.37	0.533	1.29	0.546	4.33	1.16	1.12	1.11	1.06

LYN, construct: Full length, human (from UniProt P07948)
relative phosphorylation
Settings	at +1	at +2	at +3	at +4	at +5	at -1	at -2	at -3	at -4	at -5
A fixed	1.69	0.956	0.493	0.796	0.932	0.577	1.02	0.769	1.09	1.05
D fixed	0.936	0.672	0.237	0.582	0.535	0.838	1.44	1.77	1.3	1.27
E fixed	1.64	1.58	0.258	0.623	0.514	1.1	1.63	2.4	1.61	1.09
F fixed	0.757	1.12	3.21	1.07	1.48	1.27	0.808	1.09	1.44	1.06
G fixed	2.35	0.704	0.661	0.923	1	0.445	1.2	0.939	1.14	1.04
H fixed	0.807	0.613	0.68	1.22	0.988	0.505	0.773	0.703	0.641	0.871
I fixed	1.15	1.13	2.63	0.899	0.956	3.44	1.05	0.802	0.922	1.02
K fixed	0.22	0.682	0.443	1.25	1.21	0.21	0.489	0.427	0.582	0.805
L fixed	0.822	0.804	1.47	0.911	1.04	2.08	0.993	0.835	1.24	1.03
M fixed	1.04	0.935	0.896	1.09	0.848	0.982	0.635	0.992	0.992	1.07
N fixed	0.628	0.943	0.347	0.803	0.66	0.381	1.14	1.09	0.82	1.09
P fixed	0.226	0.911	0.638	1.06	1.28	0.791	1.14	1.24	0.991	1.03
Q fixed	1.1	0.963	0.352	1.14	0.778	0.463	1.03	0.917	1.19	1.09
R fixed	0.31	0.92	0.974	1.38	1.32	0.2	0.524	0.45	0.6	0.762
S fixed	1.05	1.31	0.507	0.974	1.05	0.413	1.16	0.905	0.721	0.833
T fixed	0.795	1.33	0.59	0.851	1.01	1.22	0.964	0.823	0.669	0.765
V fixed	1.3	1.2	1.4	0.824	0.893	2.27	1.02	0.696	0.803	0.885
W fixed	1.18	1.22	2.21	1.61	1.5	0.811	0.977	1.15	1.25	1.23
pThr fixed	0.927	1.68	0.243	0.385	0.435	2.22	1.34	1.24	1.14	1.11
pTyr fixed	1.36	1.98	0.397	0.897	0.487	1.35	1.2	1.49	1.45	1.21
